Blank lines part the entries; values can stand above or below the molecule they belong to.
Assays:
[1] = molecular target: T1, cYibK (cYibK_lo, backbone-cyclized PaYibK) (Pseudomonas aeruginosa, UniProt Q9HU57); test: isothermal titration calorimetry; type: binding
T1 construct: gene trmL; recombinant in E. coli ER2566 from pITRSF3D (SUMO fusion cut, LPETG-H6), N and C termini joined by S. aureus sortase A through a nine-residue linker, His-tag removed by ligation; backbone-cyclized, homodimer

[2] = molecular target: T2, lYibK (linear PaYibK_lo) (Pseudomonas aeruginosa, UniProt Q9HU57); test: isothermal titration calorimetry; type: binding
T2 construct: gene trmL; recombinant in E. coli ER2566 from pBHRSF260, N-terminal His-SUMO fusion cut by Ulp1; homodimer
T2 sequence (Q9HU57 1-153): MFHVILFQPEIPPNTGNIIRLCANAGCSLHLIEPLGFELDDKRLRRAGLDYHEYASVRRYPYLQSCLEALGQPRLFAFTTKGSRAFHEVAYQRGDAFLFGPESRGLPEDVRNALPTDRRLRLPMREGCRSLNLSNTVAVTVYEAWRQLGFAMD

[3] = molecular target: backbone-cyclized YibK from Pseudomonas aeruginosa with a nine-residue linker (sortase A ligation of PaYibK_lo) (Pseudomonas aeruginosa); test: SEC-SAXS; native conditions: buffer A (50 mM Tris-HCl pH 7.4, 0.5 mM EDTA, 5 mM DTT) without urea, 2% glycerol; protein at 10 mg/ml; online size-exclusion column (Bio SEC-3)
[4] = molecular target: linear form of YibK from Pseudomonas aeruginosa with the identical sequence as PaYibK_lo / cYibK (Pseudomonas aeruginosa); test: as above
[5] = molecular target: wild-type YibK from Pseudomonas aeruginosa in its linear form (Pseudomonas aeruginosa); test: crystal structure; PaYibK: 0.15 M ammonium sulfate, 0.9 M lithium sulfate, 0.1 M sodium citrate pH 5.6, 2.0 Å; cYibK: 0.3 M ammonium sulfate, 0.1 M MES pH 6.0, 25% PEG MME 5,000, 2.2 Å

Molecule: Nc1ncnc2c1ncn2[C@@H]1O[C@H](CSCC[C@H](N)C(=O)O)[C@@H](O)[C@H]1O [S-adenosyl-L-homocysteine]
Kd [1]: 8.93 ± 0.03 µM | Kd [2]: 8.8 ± 0.01 µM

Molecule: backbone-cyclized YibK from Pseudomonas aeruginosa with a nine-residue linker (sortase A ligation of PaYibK_lo) (enzyme)
stoichiometry N [3]: 2

Molecule: linear form of YibK from Pseudomonas aeruginosa with the identical sequence as PaYibK_lo / cYibK (enzyme)
stoichiometry N [4]: 2

stoichiometry N [5]: 2
Molecule: wild-type YibK from Pseudomonas aeruginosa in its linear form (enzyme)
